Laboratory results taken from the nanobody polyreactivity screen of Harvey et al. (2022).

Assay: yeast display, Sf9 membrane polyspecificity reagent, FACS + sequencing; frameworks hold sequencing errors
How it was run: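 Using colony PCR, genes from sorted yeast display clones were amplified, then sequenced on MiSeq at 2 × 250 and filtered by CDR length. The clones had been stained with 10% biotinylated, detergent-solubilized Sf9 membrane reagent for 1 hour at 4 °C and sorted by FACS into low and high (top ~1%) gates on anti-HA and streptavidin fluorescence. Polyreactivity labels come from the gate of origin.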

Sequence	polyreactivity (PSR sort gate)
QVQLVESGGGLVQAGGSLRLSCAASGINFGYNVMGWYRQAPGKERELVAAISGSGSSTYYADSVKGRFTISRDNAKNTVYLQMNSLKPEDTAVYYCARQRYEYRTTYYYWGQGTQVTVSS	high polyreactivity
QVQLVESGGGLVQAGGSLRLSCAASGFIFFRYDMAWYRQAPGKERELVAVITSSGSTNYADSVKGRFTISRDNAKNTVYLQMNSLKPEDTAVYYCNARGYWTWYRGYRMDYWGQGTQVTVSS	high polyreactivity
QVQLVESGGGLVQAGGSLPLSCAASGGTFYKYAMGWYRQAPGKERELVARISRGGSTYYADSVKGRFTISRDNAKNTVYLQMTSLKPEDTAVYYCAKLWYAVWPIVVQYNYWGQGTQVNVSS	high polyreactivity
QVQLVESGGGLVQAGGSLRLSCAASGRIFAGYPMGWYRQAPGKERELVATITRGGSTNYADSVKRPFTISRDNAKYTVYLQMNSLKPEDTAVYYCNADPGGRYPRRGYAHEGDYWGQGTQVTVSS	low polyreactivity
QVQLVETGGGLVQAGGSLRLSCAATGFTFGYYTMGWYRQAPGKEGELVAAITWRGGSTYYADSVKGRFTISRDNAKNTVYLQMNSLKPEDTAVYYCNAVVLGYYPSGVYPDDEEHDYWGQGTQVTVSS	high polyreactivity
QVQIVESGGGLVHAGGSLRLSCAASGSIYKRYAMGWYRQAPGKERELVAAIRWSGGSTYYADSVKGRFTISRDNAMNTVFLQMNSLKPEDTAVYYCARDGWGRLYGMGYWGQGTQVTVSS	low polyreactivity
QVQLVESGGGLVQAGGSLRLSCAASGRTFGWYSMGWYRQAPGKERELVAAINNSVDITYYSDSVKGRFTISRDNAKNSVYLQMNSLKPEDTAVYYCNRDARSGFVTIYATDYDYWGQGTQVTVSS	low polyreactivity
QVQLVESGGGLVQAGGSLRLSCAASGITFGRYAMGWYSQAPGKARELVASITVNGGRTYYADSVKGRFTISRDNAKNTVNLQMNSLKPEDTAVSYCAAERRNSYVLLFKYNYWGQGTQVTVSS	low polyreactivity
QVQLVESGGGLVQAGGSLRLSCAASGRIFSDYAMGRYRQAPGKDRELVATITTGDSTNYADSVKGRFTISRDNAKNTVYLQMNSLKPEDTAVYYCNADRFADYDYWGQGTQVTVSS	low polyreactivity
QVQLVESGGGLVQAGGSLRLSCAASGSIFQRNAMGWYRQAPGKERELVAAISRSGGRTYYADSVKGRFTISRDNAKNTVYLQMNILKPEDTAVYYCAADSPYIQNRFEYWGQGTQVTVSS	high polyreactivity
QVQLVESGGGLVQAGGSLRLSCAASGNIFRAYAMGWYRQAPGKERELVARISASGGSTYYADSVKGRFTISRDNAKNTVYLQMNSLKPEDTAVYYCAARVRVRLGRNWSSYYYWGQGTQVTVSS	high polyreactivity
QVQLVESGGGLVQAGGSLRLSCAASGFIFSYYAMGWYRQAPGKEREFVAAISRRGGSTYYADSVKGRFTISRDNAKNTVYLQMISLKPDDSAVYYCARRRTSTAVREHYYRDWYGYDYWGQGTQVTVSS	high polyreactivity
QVQLVESGGGLVQAGGSLRLSCAASGNTFAYNVMGWYRQAPGKERELVAAISRSGGSTYYADSVKGRFTISRDNAKNTVYLQMNSLKPEDTAVYYCAAVVRRVRPEGSYNRWGHDYWGQGTQVTVSS	high polyreactivity
QVQLVESGGGLVQAGGSLRLSCAASGSTFWKYAMGWYRQAPGKERELVAAINTSGGRTYYADSVKGRCTISRDNAKNTVYLQMNSLKPEDTAVYYCNARQGITYKDGRSIKYDYWGQGTQVTGSS	high polyreactivity
QVQLVESGGGLVQAGGSLRLSCAASGFTFARYTMGWSRQAPGKEREFVAAISWSGGRTYYADSVKGRFTISRDNAKNTVYLQMNSLKPEDTAVYYCAAEYWGVYRGFVSSFDYWGQGTQVTVSS	high polyreactivity
KYYADSVKGRFTISRDNAKNTVYLQMNSLNPEDTAVYYCNAGYYISFNPYDYWGQGTQVTVSW	low polyreactivity
QVQLVESGGGLVQAGGSLRLSCAASGFTFYYYTMGWYRQAPGKERELVAAITWRGGSTNYADSVKGRFTISRDNAKNTVYLQMNSLKPEDTAVYYCAAVTYWFWPGMDYWGQGTQVTVSS	low polyreactivity
QVQLVESGGGLVQAGGSLRLSCAASGRTFPYNAMGWYRQAPGKERELVAGITGGGSTYYADSVKGRFTISRDNAKKTVYLQMNSLKPEDTAVYYCAADRYFLYGTYPDVEFNYWGQGTQVTVSS	high polyreactivity
QVKQQESGGGLVKAGGSLRLSCAASGNISNHNDMGRYRQAPGKEREFVAGITAGGITNYADRVKGRCTISRDNAKNTVYLQMNCLKPEETAVYYCAAYADYAKSYGYWGQGTQATVSS	low polyreactivity
QVQLVESGGCLVHAGGSLRLSCAASGFTFRWYAMGWYRQAPGKERELVASISRRGGSTYYADSVKGRFTISRDNEKNTVYLQMNSLKPEDSAVYYCAADYYDYWGQGTQVTVSS	high polyreactivity
QVQLVESGGGLVQAGGSLRLSCAASGFISKYYAMVWYRQAPGKERELVAAITRSGTSTYYADSVKGRFTISRDNAKNTVYLQMNSLTPEDTAVYYCAAVSGGRTPRYYYWGQGTQVTVSS	high polyreactivity
QVQLVESGGGLDQAGGSLRLSCAASGITFRWYAMGWYRQAPGKERELVAAISSGGSTRYADSVKGRFTISRDNAKNTVYLQMNSLKPEDTAVYYCAKRYYGRGYYYWGQGTQVTVSS	high polyreactivity

Sequence	polyreactivity (PSR sort gate)
QVQLVESGGGLVQAGGSLRLSCAASGSTFYGYAKGWYRQAPGKERELVAAITRSGGSTYYADSVKGRFTISRDNAKNTVYLQMNSLKPEDTAVYYCAVATGPVSYRRYYWGQGTQVTVSS	high polyreactivity
QVQLVESGGGLVQAGGILRLSCAASGSTFTYNVMGWYRQAPGKERYLVAAISWSGGSTFYADSVKGRFTISRDNAKNTVYLQMNRLKPEDTAVYYCNKDHLVYPSEFYYWGQGTQVTVSS	low polyreactivity
QVQLVESGGGLVQAGGSLRLRGAASGSTFYRYAMGWSRQAPGKERELVAAISWSAGRTYYADSVKGRFTISRYTAKNTVYLQMNSLKPEDTAVYYCAARGWYKSDYWGQGTQVTVSS	low polyreactivity
QVQLVESVGGLVQAGGSHRLSCAASGSIFGYYTMGWYRQAPGKERELVAAITYSGGSTYYADSVKGRFTISRDNAKNTVYLQMNSLKPEDTAVYYCNAKSAAHRYVRRHDYWGLGTQVTVSS	low polyreactivity
QVQLVESGGGLVQAGGSLRLSSAASGRIFKRYTMGSYRQAPGKERELVAANTKRADRTNYADSVNGRFTISRDNAKNTVYLQMNSLKAVDTAVYYCNAEGQNDHPSNGYISYNYDYWGQGTQVTVSS	low polyreactivity
QVQLVESGGGLVQAGGSLRLSCAASGLTFDKYTMGWYRQAPGKERELVARISTSGSRTYYADSVKGRFTISRDNAKNTVYLQMNSLKPEDTAVYYCNKDGWIRRRRGYDYWGQGTQVTVSS	high polyreactivity
QVQLVESGGGLVQAGGSLRLSCAASGRIFSSNAMGWYRQAPGKERELVASINRGDRTYYADSVKGRFTISRDNAKNTVYLQMNSLKPEDTAVYYCAAARTYGKKYGYWGQGTQVTVSS	high polyreactivity
QVQLVESGGGLVQAGGSLRLSCAASGSIFYAYAMGWYRQAPRKERELVAAITRSGGSTYYADSVKGRFTISRDNAKNTVYLQMNSLKPEDTAVYYCAAVSRSRRMDFWGQGTQVTVSS	high polyreactivity
QVQLVESGGGLVQAGGSLRLSCAASGRTFVYNAMGWYRQAPGKERELVAAITSGGSTYYADSVKGRFTMSRDNAKNTVYLQMNSLKPEDTAVYYCDGYKRGYYWGQGTQVTVSS	high polyreactivity
QDQLVDSGGGLVQAGGSLRLSCAASASTFDPNLMPSYRQAPGKEREVVAAISSRSGSTSYADSVKGRFTISRDNAKNTDYLQMNSLKPEDTAVYYCAARVYGLPLRMYSWGQGTQVTGSS	high polyreactivity
QVQLVESGGCLVQAGGSLRLSCSSSGSTFEYNAIGWYRQAPGKERELVAAIRSSSSTHYADSVKGRFTISRDNAKNTVYLQMNSLKPEDTAVYYFNTDAHYYDHWGQGTQVTVSS	low polyreactivity
QVQLVESGGGLVQAGGSLRLSCAASGSIFGYNAMGWYRQAPGKERELVAAISLTTGSTYYADSVKGRFTISRDNAKNTVYLQMNCLNPEDTAVYYCAAVDADYYYWGQGTQVTVSS	high polyreactivity
QVQLVESVGGIVQAGGSLRLSCDASGRTFGRSAMGSYRQAPGKERELVAGISRAGDSTHYAESVKGRCTISRDNAKNTVYLQMNSLKPEDTAVYYCNKETPTIGARKYEYWGQGTQVTVSS	low polyreactivity
QVQLVESGGGLVQAGGSLRLSCAPSGGTFIYYAMGWYRQAPGKERELVAAISSGGSTYYADSVKGRFTISRDNAKNTVYLQMNSLKPEDTAVYYCAKRRAVQIVDLEYWRQGTQVTVSS	low polyreactivity
QVQLVESGGGLVQAGGSLRLICAASGRTFYSYAMGWYRQAPGKERELVASISSGGGTNYADSVKGRFTISRDNAKNTVYLQKNSLKPEDTAVYYCDVDPYPYRGYDYWGQGTQVTVSS	low polyreactivity
QVQLVESGGGLVQAGGSLRLSCAASGFTFARYTMGWYRQEPGKERELVAAISSRGSSTYYADSVKGRFTISRDNAKNTVYLQMNSLKPEDTAVYYCAAPPRYGYDYWGQGTQVTVSS	high polyreactivity
QVQLVESGGGLVQAGGSLRLSCAASGRTFARNAMGWSRQAPGKERELVAAITRSGGSTYYADSVKGRFTISRDNAKNTVYLQMNSLKPEDTAVYYCAAVGTGSSLRYGYWGQGTQVTVSS	high polyreactivity
QVQLVESGGGLVQAGGSLRLSCAASGSILYPYAMGWYRQAPGKERELVAAISSDGSTYYADSVKGRFTISRDNAKNTVYLQMNSLKPEDTAVYYCNADIGPRYDYWGQGTQVTVSS	high polyreactivity
QVQLVESGGGLVQAGGSLRLSCSASGRIFPRYAMGWYIQEPGKEMELFATISSGGSTYYADSVKGRFTITRDNAKNTVYLQMNSLKPEDTADYYCADRKGQYTVINGMDYWGQGTQVTVSS	low polyreactivity
QVQLVESGGGLVQAGGSLRLSCAASGSTFAKYVMGWYRQAHGKERELVAAISRRGSSTYYADSVKGRFTISRDNAKNTVYLQMNSLKPEDTAVYYCAARFRYSGFEGMDYWGQGTQVTVSS	high polyreactivity
QVQLVESGGGLVQAGGSLRLSCAASGFTFLLYAMGWYRQAPGKERELVAAITWSTGNTYYADSVKGRFTISRDNAKNTVYLQMNSLKPEDTAVYYCYAEYLVITWYGGVEFDYWGQGTQVTVSS	low polyreactivity
